Measurements as given in the Human Domainome abundance scans (Beltran et al. 2025).
± gives the uncertainty stated by the source.

B1: Ankyrin repeat and SAM domain-containing protein 6, residues 774 to 836; numbered along this chain, Q68DC2 (parent)
chain: DEDELTGILKKLSLEKYQPIFEEQEVDMEAFLTLTDGDLKELGIKTDGSRQQILAAISELNAG

Variants of: B1
Test: abundance fitness (aPCA) (normalised: wild type 0, dead -1); higher = more abundant; growth selection in yeast, the domain comes from the species named
Settings: Homo sapiens

| Variant | abundance fitness |
| --- | --- |
| G7T | 0.111 ± 0.067 |
| G7F | -0.027 ± 0.12 |
| G7V | -0.191 ± 0.057 |
| G7R | 0.108 ± 0.045 |
| G7L | 0.102 ± 0.11 |
| G7P | -0.111 ± 0.068 |
| G7N | -0.092 ± 0.13 |
| G7H | 0.185 ± 0.1 |
| G7C | -0.072 ± 0.089 |
| G7W | -0.005 ± 0.063 |
| G7K | 0.048 ± 0.081 |
| G7E | -0.016 ± 0.095 |
| G7Y | -0.044 ± 0.11 |
| G7Q | 0.177 ± 0.099 |
| G7D | 0.039 ± 0.092 |
| G7A | 0.042 ± 0.05 |
| G7M | 0.199 ± 0.073 |
| G7I | 0.129 ± 0.11 |
| E4Y | -0.511 ± 0.16 |
| E4W | -0.582 ± 0.087 |
| I8M | 0.145 ± 0.078 |
| I8A | 0.158 ± 0.075 |
| I8Y | -0.186 ± 0.078 |
| I8W | -0.163 ± 0.058 |

| Variant | abundance fitness |
| --- | --- |
| I8C | -0.029 ± 0.088 |
| I8N | -0.192 ± 0.1 |
| I8S | -0.265 ± 0.066 |
| I8T | -0.058 ± 0.065 |
| I8K | -0.162 ± 0.044 |
| I8Q | 0.105 ± 0.089 |
| I8E | -0.206 ± 0.079 |
| I8F | -0.131 ± 0.16 |
| I8P | -1.03 ± 0.13 |
| I8R | -0.238 ± 0.038 |
| I8H | -0.189 ± 0.072 |
| I8L | 0.149 ± 0.061 |
| I8D | -0.51 ± 0.1 |
| I8V | -0.072 ± 0.1 |
| L5E | -1.07 ± 0.15 |
| L5I | -0.05 ± 0.16 |
| L5A | -0.864 ± 0.068 |
| L5H | -0.839 ± 0.13 |
| L5M | -0.116 ± 0.15 |
| L5G | -0.969 ± 0.12 |
| L5K | -0.895 ± 0.15 |
| L5P | -0.559 ± 0.092 |
| L5D | -1.01 ± 0.11 |
| L5Y | -0.504 ± 0.12 |

| Variant | abundance fitness |
| --- | --- |
| L5S | -0.84 ± 0.1 |
| L5V | -0.18 ± 0.056 |
| L5R | -0.71 ± 0.087 |
| L5Q | -0.639 ± 0.13 |
| L9M | -0.193 ± 0.058 |
| L9S | -0.729 ± 0.081 |
| L9F | -0.077 ± 0.13 |
| L9W | -0.963 ± 0.11 |
| L9V | -0.712 ± 0.072 |
| L9E | -1.02 ± 0.097 |
| L9H | -1.07 ± 0.18 |
| L9A | -0.913 ± 0.091 |
| L9T | -1.29 ± 0.19 |
| L9I | -0.741 ± 0.15 |
| L9K | -1.06 ± 0.15 |
| L9R | -0.999 ± 0.068 |
| L9Y | -0.935 ± 0.15 |
| L9G | -0.917 ± 0.081 |
| L9C | -0.801 ± 0.064 |
| L9Q | -0.876 ± 0.16 |
| E15A | -0.271 ± 0.062 |
| E15Q | -0.037 ± 0.065 |
| E15G | -0.433 ± 0.05 |
| E15K | -0.869 ± 0.35 |

| Variant | abundance fitness |
| --- | --- |
| E15P | -0.687 ± 0.068 |
| E15C | -0.343 ± 0.057 |
| E15F | -0.505 ± 0.12 |
| E15M | -0.123 ± 0.085 |
| E15T | -0.21 ± 0.11 |
| E15N | -0.492 ± 0.36 |
| E15S | -0.143 ± 0.052 |
| E15R | -0.53 ± 0.043 |
| E15I | -0.323 ± 0.084 |
| E15D | -0.158 ± 0.076 |
| E15L | -0.185 ± 0.065 |
| T6I | -0.436 ± 0.29 |
| T6V | -0.353 ± 0.22 |
| T6A | 0.146 ± 0.11 |
| K10C | -1.01 ± 0.095 |
| K10N | -0.481 ± 0.067 |
| K10F | -1.16 ± 0.15 |
| K10G | -0.56 ± 0.046 |
| K10W | -0.831 ± 0.066 |
| K10A | -0.069 ± 0.052 |
| K10L | -0.656 ± 0.059 |
| K10Q | -0.233 ± 0.088 |
| K10T | -0.049 ± 0.11 |
| K10D | -0.663 ± 0.087 |

| Variant | abundance fitness |
| --- | --- |
| K10R | -0.327 ± 0.052 |
| K10H | -0.406 ± 0.066 |
| K10E | -0.084 ± 0.082 |
| K10P | -0.525 ± 0.089 |
| K10I | -0.815 ± 0.16 |
| K10S | -0.185 ± 0.073 |
| K10V | -0.595 ± 0.049 |
| L14K | -0.918 ± 0.12 |
| L14F | -0.583 ± 0.12 |
| L14V | -0.655 ± 0.069 |
| L14W | -0.946 ± 0.088 |
| L14M | -0.303 ± 0.058 |
| L14P | -0.845 ± 0.1 |
| L14N | -1.42 ± 0.41 |
| L14Y | -0.97 ± 0.12 |
| L14E | -0.777 ± 0.1 |
| L14H | -1.01 ± 0.34 |
| L14I | -0.332 ± 0.095 |
| L14G | -1.05 ± 0.083 |
| L14T | -1.37 ± 0.16 |
| L14A | -0.94 ± 0.084 |
| L14C | -0.64 ± 0.078 |
| L14Q | -1.17 ± 0.21 |
| L12D | -1.08 ± 0.21 |

| Variant | abundance fitness |
| --- | --- |
| L12H | 0.171 ± 0.09 |
| L12W | -0.061 ± 0.054 |
| L12R | -0.538 ± 0.043 |
| L12Y | 0.09 ± 0.45 |
| L12N | -0.402 ± 0.29 |
| L12K | -0.256 ± 0.09 |
| L12V | -0.369 ± 0.054 |
| L12G | -0.927 ± 0.078 |
| L12S | -0.531 ± 0.057 |
| L12P | -1.16 ± 0.16 |
| L12I | 0.254 ± 0.29 |
| L12Q | -0.567 ± 0.095 |
| L12F | 0.005 ± 0.11 |
| L12A | -0.439 ± 0.082 |
| L12E | -0.949 ± 0.18 |
| L12C | -0.023 ± 0.077 |
| L12T | -0.35 ± 0.083 |
| L12M | 0.038 ± 0.064 |
| K11P | -0.689 ± 0.061 |
| K11A | -0.15 ± 0.06 |
| K11D | -0.166 ± 0.079 |
| K11M | -0.195 ± 0.11 |
| K11Y | -0.553 ± 0.087 |
| K11R | -0.071 ± 0.053 |

| Variant | abundance fitness |
| --- | --- |
| K11Q | -0.099 ± 0.13 |
| K11E | -0.391 ± 0.12 |
| K11T | -0.428 ± 0.078 |
| K11N | -0.254 ± 0.1 |
| K11L | -0.363 ± 0.044 |
| K11H | -0.621 ± 0.2 |
| K11G | -0.224 ± 0.064 |
| K11S | -0.305 ± 0.058 |
| S13H | 0.075 ± 0.08 |
| S13P | -0.736 ± 0.078 |
| S13R | -0.04 ± 0.048 |
| S13F | -0.62 ± 0.14 |
| S13L | -0.497 ± 0.056 |
| S13V | -0.567 ± 0.094 |
| S13I | -0.202 ± 0.21 |
| S13D | 0.131 ± 0.073 |
| S13Q | 0.042 ± 0.053 |
| S13T | -0.127 ± 0.051 |
| S13E | -0.002 ± 0.049 |
| S13N | 0.039 ± 0.1 |
| S13W | -0.472 ± 0.072 |
| S13A | -0.067 ± 0.058 |
| S13Y | -0.623 ± 0.12 |
